Assay results from publication PMC4674064, “Newly Characterized Region of CP190 Associates with Microtubules and Mediates Proper Spindle Morphology in Drosophila Stem Cells” (PLoS ONE, 2015).

Biological target: the molecule itself
Experiment: SEC-MALS; Superdex 200 10/300 GL, 25 mM Tris pH 7.4, 0.2 g/L NaN2, 0.5 mL/min

B1: Drosophila melanogaster CP190 BTB domain (residues 1-135) (domain or fragment, UniProt Q24478 1-135, looked up)
chain: MGEVKSVKVDNWGVFFLQKLQNFFNKTDYCDLTLQFRDNSQLKVHRLVLSACTDYFNVLEQTCEIVDDALIMPNEFQADVVVPIVNFMYTGTLEFELKMYGKLLRTAKEMNMTVLLKLLEAHRRTMENVNRQQRP
notes: CP190 (centrosome associated protein at 190 kDa), Drosophila melanogaster, BTB domain, residues 1-135; the final crystal model holds residues 2-121; Native and selenomethionine-substituted protein were crystallised; also called BTB-WT; source: E. coli BL21 DE3 (pLysS), purified (Ni-NTA, thrombin digestion, Q-sepharose ion exchange); not shown: His6, N-terminal, cleaved
- stoichiometry N: 2
